Key:
[1] = Specific activity of the EPO conjugate: biological activity by methods known in the art and total protein (Bradford)
[2] = test system: FIX chromogenic activity; assay: Specific activity of the rFIX conjugate: FIX chromogenic (and clotting) activity and total protein; type: biochemical
Description: The free rFIX was removed by means of anion exchange chromatography (AEC). The reaction mixture was diluted with 15 ml Buffer A (50 mM Hepes, 5 mM CaCl2, pH 7.5) and loaded onto a 20 ml HiPrep QFF 16/10 column (GE Healthcare, Fairfield, CT) pre-equilibrated with Buffer A. The column was then eluted with Buffer B (50 mM Hepes, 1 M NaCl, 5 mM CaCl2, pH 7.5). Free rFIX elutes at a conductivity between 12-25 mS/cm and the conjugate between 27-45 mS/cm. The conductivity of the conjugate containing fractions was subsequently raised to 190 mS/cm with Buffer C (50 mM Hepes, 5M NaCl, 5 mM CaCl2, pH 6.9) and loaded onto a 20 ml HiPrep Butyl FF 16/10 column (GE Healthcare, Fairfield, CT) pre-equilibrated with Buffer D (50 mM Hepes, 3 M NaCl, 5 mM CaCl2, pH 6.9). Free aminooxy-PSA reagent was washed out within 5 CV Buffer D. Subsequently the conjugate is eluted with 100 % Buffer E (50 mM Hepes, 5 mM CaCl2, pH 7.4). The conjugate containing fractions were concentrated by UF/DF using Vivaspin 15R 10 kD centrifugal filtrator. The final diafiltration step was performed against histidine buffer, pH 7.2 containing 150 mM NaCl and 5 mM CaCl2. The preparation was analytically characterized by measuring total protein (Bradford) and FIX chromogenic activity.
The free rFIX is removed by means of anion exchange chromatography (AEC). The reaction mixture is diluted with appropriate amounts of Buffer A (50 mM Hepes, 5 mM CaCl2, pH 7.5) to correct the solutions conductivity and pH prior to load onto a 20 ml HiPrep QFF 16/10 column (GE Healthcare, Fairfield, CT) pre-equilibrated with buffer A. Then the column is eluted with Buffer B (50 mM Hepes, 1 M NaCl, 5 mM CaCl2, pH 7.5). Free rFIX is eluted by a step gradient using 25 % of Buffer B, which results in a conductivity between 12-25 mS/cm in the obtained fraction and the conjugate using a step gradient of 50 % Buffer B, which results in a conductivity between between 27-45 mS/cm in the conjugate fraction. […] Free aminooxy-PSA reagent is washed out within 5 CV Buffer D. Subsequently, the conjugate is eluted with 100 % Buffer E (50 mM Hepes, 5 mM CaCl2, pH 7.4). The conjugate containing fractions are concentrated by UF/DF using a 10 kD membrane made of regenerated cellulose (88 cm2, cut-off 10 kD, Millipore). The final diafiltration step is performed against L-histidine buffer, pH 7.2 containing 150 mM NaCl and 5 mM CaCl2. The preparation is analytically characterized by measuring total protein (Bradford and BCA procedure) and FIX chromogenic- and clotting activity. For the PSA-rFIX conjugate a specific activity of > 50 % in comparison to native rFIX is determined.
The free rFIX was removed by means of anion exchange chromatography (AEC). […]

[3] = Specific activity of the interferon-gamma conjugate: biological activity by methods known in the art and total protein (Bradford)
Description: (§1) The free Interferon-gamma is removed by means of cation exchange chromatography (CEC). The reaction mixture is diluted with 20 ml Buffer A (50 mM Hepes, pH 6.5) and loaded onto a 20 ml HiPrep SPFF 16/10 column (GE Healthcare, Fairfield, CT) pre-equilibrated with Buffer A. Then the column is eluted with Buffer B (50 mM Hepes, 1 M NaCl, pH 6.5). Free interferon-gamma is eluted by washing the column with 25 % Buffer B and the conjugate at 50 % Buffer B. The conductivity of the conjugate containing fractions is subsequently raised to -190 mS/cm with Buffer C (50 mM Hepes, 5 M NaCl, pH 6.9) and loaded onto a 20 ml HiPrep Butyl FF 16/10 column (GE Healthcare, Fairfield, CT) pre-equilibrated with Buffer D (50 mM Hepes, 3 M NaCl, pH 6.9). Free PSA-reagent is washed out within 5 CV Buffer D. Subsequently, the conjugate is eluted with 100 % Buffer E (50 mM Hepes, pH 6.9). The conjugate containing fractions are concentrated by UF/DF using a 10 kD membrane made of regenerated cellulose (88 cm2, cut-off 10 kD, Millipore). The final diafiltration step is performed against histidine buffer, pH 6.9 containing 150 mM NaCl. The preparation is analytically characterized by measuring total protein (Bradford) and biological activity according to methods known in the art. For the PSA-Interferon-gamma conjugate a specific activity of > 50 % in comparison to native Interferon-gamma is determined. The conjugate is additionally analytically characterized by Size Exclusion HPLC using a Agilent 1200 HPLC system equipped with a Shodex KW 803 column under conditions as previously described (Kolarich et al, Transfusion 2006;46:1959-77). It is shown that the preparation contains no free Interferon gamma.
as §1, with “free interferon gamma” for “free Interferon-gamma”, “10 kD /” for “10 kD,”, “the PSAinterferon-gamma” for “the PSA-Interferon-gamma”, “native interferon-gamma” for “native Interferon-gamma”, “free interferon-gamma.” for “free Interferon gamma.”
The free interferon gamma is removed by means of cation exchange chromatography (CEC). […]

## PEG-EPO conjugate: EPO PEGylated with a linear 20 kD PEGylation reagent containing an aminooxy group, m-toluidine as catalyst
[1]; Reference Example 32 Method 1, alternative (oxidation, then m-toluidine and 20 kD aminooxy-PEG, 5-fold)
  specific activity in comparison to native EPO: > 50%
[1]; Reference Example 32 Method 3, alternative (simultaneous, 20 kD aminooxy-PEG, 5-fold)
  specific activity in comparison to native EPO: > 50%

## PSA-EPO conjugate: erythropoietin polysialylated with 20 kD aminooxy-PSA reagent, m-toluidine as catalyst
[1]; Reference Example 18 Method 1, alternative procedure (oxidation, then m-toluidine and 20 kD aminooxy-PSA, 5-fold)
  specific activity in comparison to native EPO: > 50%
[1]; Reference Example 18 Method 3, alternative procedure (simultaneous, 20 kD aminooxy-PSA, 5-fold)
  specific activity in comparison to native EPO: > 50%

## PSA-rFIX conjugate: rFIX polysialylated via oxidized carbohydrate with 20 kD aminooxy-PSA reagent, m-toluidine as catalyst
[2]; Reference Example 11 Method 1 (oxidation, UF/DF, then m-toluidine and 20 kD aminooxy-PSA), FIX chromogenic activity, Bradford
  specific activity in comparison to native rFIX: > 50%
[2]; Reference Example 11 Method 2 (oxidation, UF/DF, then 10 mM m-toluidine and 20 kD aminooxy-PSA), FIX chromogenic- and clotting activity, Bradford and BCA
  specific activity in comparison to native rFIX: > 50%
[2]; Reference Example 11 Method 3 (simultaneous periodate, m-toluidine, 20 kD aminooxy-PSA), FIX chromogenic activity, Bradford
  specific activity in comparison to native rFIX: > 50%
[2]; Reference Example 11 Method 4 (simultaneous, 2 mg rFIX / ml), FIX chromogenic- and clotting activity, Bradford and BCA
  specific activity in comparison to native rFIX: > 50%

B1: PSA-Interferon-gamma conjugate: interferon-gamma polysialylated with 20 kD aminooxy-PSA reagent, m-toluidine as catalyst (conjugate, UniProt P01579 24-161, looked up)
Interferon gamma: QDPYVKEAENLKKYFNAGHSDVADNGTLFLGILKNWKEESDRKIMQSQIVSFYFKLFKNFKDDQSIQKSVETIKEDMNVKFFNSNKKKRDDFEKLTNYSVTDLNVQRKAIHELIQVMAELSPAAKTGKRKRSQMLFRG
modifications: polysialic acid 20 kD
notes: interferon-gamma polysialylated with 20 kD aminooxy-PSA reagent, m-toluidine as catalyst
[3]; Reference Example 27 Method 1 (oxidation, then m-toluidine and 20 kD aminooxy-PSA, 5-fold)
  specific activity in comparison to native interferon-gamma: > 50%
[3]; Reference Example 27 Method 2 (simultaneous, 20 kD aminooxy-PSA, 5-fold)
  specific activity in comparison to native interferon-gamma: > 50%
[3]; Reference Example 27 Method 3 (simultaneous, 20 kD aminooxy-PSA, 5-fold)
  specific activity in comparison to native interferon-gamma: > 50%

B2: PEG-interferon-gamma conjugate: interferon-gamma PEGylated with a linear 20 kD aminooxy PEGylation reagent, m-toluidine as catalyst (conjugate, UniProt P01579 24-161, looked up)
Interferon gamma: B1 Interferon gamma
modifications: PEG 20 kD
notes: interferon-gamma PEGylated with a linear 20 kD aminooxy PEGylation reagent, m-toluidine as catalyst
[3]; Reference Example 41 Method 1 (oxidation, then m-toluidine and 20 kD aminooxy-PEG, 5-fold)
  specific activity in comparison to native Interferon gamma: > 50%
[3]; Reference Example 41 Method 3 (simultaneous, 20 kD aminooxy-PEG, 5-fold)
  specific activity in comparison to native interferon-gamma: > 50%

Source: EP3505186B1, “NUCLEOPHILIC CATALYSTS FOR OXIME LINKAGE” (Takeda Pharmaceutical Company Limited, priority 2010, dated 2012)
